Test results as given in patent US20260242839A1, “GLYCOSIDE PRODUCT BIOSYNTHESIS AND RECOVERY” (Manus Bio Inc., priority 2023, published 2026).

B1: SEQ ID NO: 80: SrUGT73E1, with optional His tag (Stevia rebaudiana) (protein, listed as Stevia rebaudiana)
chain: MAHHHHHHVGTGSNDDDDKSPDPNWASTSELVFIPSPGAGHLPPTVELAKLLLHRDQRLSVTIIVMNLWLGPKHNTEARPCVPSLRFVDIPCDESTMALISPNTFISAFVEHHKPRVRDIVRGIIESDSVRLAGFVLDMFCMPMSDVANEFGVPSYNYFTSGAATLGLMFHLQWKRDHEGYDATELKNSDTELSVPSYVNPVPAKVLPEVVLDKEGGSKMFLDLAERIRESKGIIVNSCQAIERHALEYLSSNNNGIPPVFPVGPILNLENKKDDAKTDEIMRWLNEQPESSVVFLCFGSMGSFNEKQVKEIAVAIERSGHRFLWSLRRPTPKEKIEFPKEYENLEEVLPEGFLKRTSSIGKVIGWAPQMAVLSHPSVGGFVSHCGWNSTLESMWCGVPMAAWPLYAEQTLNAFLLVVELGLAAEIRMDYRTDTKAGYDGGMEVTVEEIEDGIRKLMSDGEIRNKVKDVKEKSRAAVVEGGSSYASIGKFIEHVSNVTI
modifications: optional His tag
B2: SEQ ID NO: 82: UGT73F24 (Glycyrrhiza uralensis) (protein, listed as Glycyrrhiza sp.)
chain: MADVAEEQPLKIYFIPYLAAGHMIPLCDIATLFASRGHHVTIITTPSNAQTLRESHHFRVQTIQFPSQEVGLPAGVQNLTAVTNLDDSYKIYHATMLLRKHIEDFVERDPPDCIVADFLFPWVDDVATKLHIPRLVFNGFTLFTICAMESHKAHPLPVDAASGSFVIPDFPHHVTINSTPPKRTKEFVDPLLTEAFKSHGFLINSFVELDGEECVEHYERITGGHKAWHLGPAFLVHRTAQDRGEKSVVSTQECLSWLDSKRDNSVLYICFGTICYFPDKQLYEIASAIEASGHEFIWVVPEKRGNADESEEEKEKWLPKGFEERNNGKKGMIIRGWAPQVAILGHPAVGGFLTHCGWNSTVEAVSAGVPMITWPVHSDQYFNEKLITQVRGIGVEVGAEEWIVTAFRETEKLVGRDRIERAVRRVMDGGDEAVQIRRRARELGEMARQAVQEGGSSHTNLTALINDLKRWRDSKQLN
B3: SEQ ID NO: 17: SrUGT85C2 (Stevia rebaudiana) (protein, listed as Stevia rebaudiana)
chain: MDAMATTEKKPHVIFIPFPAQSHIKAMLKLAQLLHHKGLQITFVNTDFIHNQFLESSGPHCLDGAPGFRFETIPDGVSHSPEASIPIRESLLRSIETNFLDRFIDLVTKLPDPPTCIISDGFLSVFTIDAAKKLGIPVMMYWTLAACGFMGFYHIHSLIEKGFAPLKDASYLTNGYLDTVIDWVPGMEGIRLKDFPLDWSTDLNDKVLMFTTEAPQRSHKVSHHIFHTFDELEPSIIKTLSLRYNHIYTIGPLQLLLDQIPEEKKQTGITSLHGYSLVKEEPECFQWLQSKEPNSVVYVNFGSTTVMSLEDMTEFGWGLANSNHYFLWIIRSNLVIGENAVLPPELEEHIKKRGFIASWCSQEKVLKHPSVGGFLTHCGWGSTIESLSAGVPMICWPYSWDQLTNCRYICKEWEVGLEMGTKVKRDEVKRLVQELMGEGGHKMRNKAKDWKEKARIAIAPNGSSSLNIDKMVKEITVLARN
B4: SEQ ID NO: 81: UGT enzyme (Camelina sativa) (protein, listed as Camelina sativa)
chain: MASEKTLQVHPPLHFVLFPFMAQGHMIPMVDIARLLAQRGATVTIVTTRYNAGRFENVLSRAVESGLPINIVHVKFPYEEVGLPKGKENIDSLDSMELMVPFFKAVNMLQDPVVKLMEEMESRPSCIISDLLLPYTSKIAKKFNIPKIVFHGISCFCLLCVHVLRRNLEILTNLKSDKEYFLVPSFPDRVEFTKPQVTVETNASGDWKEFLDEMVEAEDTSYGVIINTFEELEPAYVKDYKDARAGNVWSIGPVSLCNKAGVDKAERGNKATIDQDECLKWLDSKEEGSVLYVCLGSICNLPLVQLKELGLGLEESQRPFIWVIRGWEKYNELSEWMVESGFEERIRERGLLIRGWAPQVLILSHPSVGGFLTHCGWNSTVEGITSGVPLITWPLFGDQFCNQTLVVQVLKAGVSVGVEEVMKWGEEEKIGVLVDKEGVKKAVEDLMGESDDAKERTKRVKELGGLAHKAVEEGGSSHSNITLFLQDIRQVQSV

System: mogrol
Assay: primary glycosylation at C3 and C24 hydroxyls of mogrol by cells expressing UGT enzymes
Type: cell-based, E. coli
Settings: mogrol fed; 37° C., 48 hrs; LCMS/MS
Method: Specifically, mogrol was fed to cells expressing various UGT enzymes. Reactions were incubated at 37° C. for 48 hrs. Products were quantified by LCMS/MS with authentic standards of each compound.

Row | Molecule | C3 O-Glucosylation | C24 O-Glucosylation
1 | B1 | No | Yes
2 | B2 | No | Yes
3 | B3 | No | Yes
4 | B4 | No | Yes
